Results: patent US4285932A, “Enzyme derivatives for use in the treatment of venous thrombosis” (Beecham Group Limited, priority 1978, dated 1981)

B1: Trans-Cinnamoyl Porcine Plasmin (protein, UniProt P06867 20-579; P06867 580-809, looked up)
Plasmin heavy chain A: DSLDDYVNTQGAFLFSLSRKQVAARSVEECAAKCEAETNFICRAFQYHSKDQQCVVMAENSKTSPIARMRDVVLFEKRIYLSECKTGNGKNYRGTTSKTKSGVICQKWSVSSPHIPKYSPEKFPLAGLEENYCRNPDNDEKGPWCYTTDPETRFDYCDIPECEDECMHCSGEHYEGKISKTMSGIECQSWGSQSPHAHGYLPSKFPNKNLKMNYCRNPDGEPRPWCFTTDPNKRWEFCDIPRCTTPPPTSGPTYQCLKGRGENYRGTVSVTASGHTCQRWSAQSPHKHNRTPENFPCKNLEENYCRNPDGETAPWCYTTDSEVRWDYCKIPSCGSSTTSTEYLDAPVPPEQTPVAQDCYRGNGESYRGTSSTTITGRKCQSWVSMTPHRHEKTPGNFPNAGLTMNYCRNPDADKSPWCYTTDPRVRWEYCNLKKCSETEQQVTNFPAIAQVPSVEDLSEDCMFGNGKRYRGKRATTVAGVPCQEWAAQEPHRHSIFTPETNPRAGLEKNYCRNPDGDDNGPWCYTTNPQKLFDYCDVPQCVTSSFDCGKPKVEPKKCPAR
Plasmin light chain B: VVGGCVSIPHSWPWQISLRHRYGGHFCGGTLISPEWVLTAKHCLEKSSSPSSYKVILGAHEEYHLGEGVQEIDVSKLFKEPSEADIALLKLSSPAIITDKVIPACLPTPNYVVADRTACYITGWGETKGTYGAGLLKEARLPVIENKVCNRYEYLGGKVSPNELCAGHLAGGIDSCQGDSGGPLVCFEKDKYILQGVTSWGLGCALPNKPGVYVRVSRFVTWIEEIMRRN
modifications: plasmin trans-cinnamoyl acylated active site
notes: porcine plasmin acylated with p-amidinophenyl transcinnamate
B2: p-Anisoyl: porcine plasmin, active site serine blocked by p-anisoyl; porcine column of Table 1 (protein, UniProt P06867 20-579; P06867 580-809, looked up)
Plasmin heavy chain A: B1 Plasmin heavy chain A
Plasmin light chain B: B1 Plasmin light chain B
modifications: plasmin p-anisoyl acylated active site

Assays:
Format in all cases: biochemical
[1] = test system: streptokinase-human plasminogen activator complex; experiment: Deacylation of acylated streptokinase-human plasminogen activator complex to free enzyme; conditions: acyl-activator complex solution; 37° C.
Method: (§1) The pseudo-first order rate constant is determined by hydrolysing the enzyme derivative under physiological conditions i.e. in isotonic aqueous media at pH 7.4 and at 37° C. At regular intervals aliquots are withdrawn and incubated with a chromogenic or fluorogenic protease substrate such as S-2251 (H-D-Val-Leu-Lys-p-nitroanilide 2HCl) and the rate of conversion of the substrate measured.
(§2) The hydrolysis is followed until such time as the rate of conversion of substrate reaches a maximum. The rate constant k is then calculated by plotting: […]
(§3) loge (1-^At /Amax) against t
(§4) where Amax the maximum rate at which an aliquot converts substrate and At is the rate at which an aliquot converts substrate at time t.

[2] = test system: Porcine Plasmin; experiment: Deacylation (hydrolysis) of active-site blocked porcine plasmin, pseudo-first order rate constant followed by regain of activity on chromogenic substrate; conditions: for Deacylation rate, Porcine Plasmin K sec^-1 × 10^4: active site serine substituted porcine plasmin, pH 7.4, 37° C.
Method: as §1, §2, §3, §4

[3] = test system: Porcine Plasmin; experiment: Residual enzyme activity of blocked porcine plasmin versus original enzyme; conditions: after acylation and dialysis
Method: The time for which the reaction is allowed to proceed depends upon the blocking reagent employed, the temperature at which the reaction is carried out and the enzyme selected for blocking. The optimum time period for any particular circumstances may be selected by following the decrease in enzymic activity by incubating aliquots with a chromogenic or fluorogenic substrate.

[4] = test system: Human Plasmin; experiment: Deacylation (hydrolysis) of active-site blocked human plasmin, pseudo-first order rate constant followed by regain of activity on chromogenic substrate S-2251; conditions: active site serine substituted human plasmin; pH 7.4, 37° C.

Row | Molecule | pseudo-first order (deacylation) rate constant of regeneration to free enzyme [1] [s⁻¹] | Deacylation rate, Porcine Plasmin K sec^-1 × 10^4 [2] [sec^-1 × 10^4] | time for reactivation ([2]; deacylation conditions) | activity of the derivative relative to the original enzyme [3] | Deacylation rate, Human Plasmin K sec^-1 × 10^4 [4] [sec^-1 × 10^4]
1 | 3-Methyl p-Anisoyl Streptokinase-human Plasminogen Activator Complex [Example 23] | 0.0001 |  |  |  | 
2 | p-Anisoyl Streptokinase-Human Plasminogen Activator Complex [Example 22] | 0.00027 |  |  |  | 
3 | B1 |  | 4.20 | two | less than 0.5% | 
4 | B2 |  | 0.33 |  |  | 1.10
